Results: publication doi:10.1101/2020.09.02.280610

Molecular target: recombinant soluble canine IL-10 receptor alpha chain (extra-cytoplasmic domain of canine IL-10R1) (canine)
Test: SPR

EC80 (binding equilibrium constant): 51.4 nM | RU at 31.2 ng/mL: 211 RU | RU at 125 ng/mL (plateau): 1720 RU
Substance: recombinant canine IL-10 (from UniProt P48411 20-181) (ligand)
